The RNAGym collection of RNA variant scans (doi:10.1073/pnas.2313332121)

B1: TPR t1 (parent)
chain: GACCAAUCUGCCCUCAGAGCUCGAGAACAUCUUCGGAUGCAGAGGAGGCAGGCUUCGGUGGCGCGAUAGCGCCAACGUCCUCAACCUCCAAUGCAUCCCACCACAUGAUGAUGCCUGAAGAGCCUUGGUUUUUUG

Variants of: B1
Assay: polymerase ribozyme fitness, log enrichment relative to wild type (log ratio); higher = more active; in vitro selection for triplet polymerase activity
Procedure, shortened: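 After PCR construction and transcription, each subunit's mutant library from a heterodimeric triplet polymerase ribozyme was annealed with a biotinylated primer, the partner subunit and triplets. Incubation was frozen, at −7 °C, and extended constructs were gel-excised, bound to streptavidin beads and amplified by RT-PCR, in one selection round done in triplicate. Fitness is the logarithm of a genotype's enrichment divided by that of the wild type, from inverse-variance-weighted replicate averages of Illumina-sequenced inputs and outputs. The base of the logarithm is 2, and genotypes needed ≥10 input reads and ≥1 read per output.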

| Variant | polymerase ribozyme fitness (log ratio) |
| --- | --- |
| C8U C12U C49U U116A G120U C123U U126C | -4.26 |
| C8A C28A C72U C123U | -2.54 |
| C8G G45A G117A C123A U130G | 0.313 |
| C8A C49A C64U C86U G93U C94U C123A | -0.145 |
| C8G C13U G47C | -0.248 |
| C8G A46U G117C | -1.21 |
| C8A U133G | 0.0303 |
| C8A C31A U129C | -5.73 |
| C8G C49G G71A U87A C124U | 0.992 |
| C8A G69U | 0.656 |
| C8G C12A C28G A29G G48U A68U C114A U125G | -6.52 |
| C8A C62U A118C | -2.69 |
| C8G G63A | -0.627 |
| C8A G36U C82A | -0.55 |
| U7G G63C | -0.0723 |
| C8A C64U A95G A111G G122U G135A | -0.12 |
| C8A C15U A46U A118G | -1.21 |
| C8A U112C | 1.3 |
| C8U A18U G57A C64U C94U | -4.97 |
| C8G C85U | -0.269 |
| U7G G51C U55C C73A | -3.19 |

| Variant | polymerase ribozyme fitness (log ratio) |
| --- | --- |
| C8G G10A C12U G35A A66C C72G A121U G122C U130C | -7.42 |
| C8A A84G | 0.231 |
| U7G G60U | -0.565 |
| C8A C49U C72A A100C U106G U109A U132C | -4.59 |
| C8A C86G C102U C104U G110A | -4.28 |
| C8G C62U A118U U131C | 1.45 |
| C8A G52A | -0.0157 |
| C8G C56G C89A A90C G107C G117C | -5.56 |
| C8A G44U G57A C64U | -0.879 |
| C8A C11G A103C A119U G120A | -3.31 |
| C8G G45C G51U G65A G113U C123U | -7.22 |
| C8G C15U G48C C124G | 0.169 |
| C8A C72U U87A C99U | -2.56 |
| C8U A26U A83C G127C U133A | -5.14 |
| C8A G60U | -0.464 |
| C8G A27U C53U A111C C114G | -6.88 |
| C8A C40A A43C U87G | -2.23 |
| C8A C12G U14C G77C C101A | -1.39 |
| C8G U106G C114U | -1.28 |
| C8G A91U | -1.17 |
| C8U C12U C101G A121C | -0.571 |

| Variant | polymerase ribozyme fitness (log ratio) |
| --- | --- |
| C8A C79U C88G C102U | -2.19 |
| C8G A27U C89G | -4.7 |
| U7G U78C | 0.451 |
| U7G G51C | -2.99 |
| C8G G47U G57A C73A C85G U106A U133A | -4.51 |
| C8G A108G | -0.714 |
| C8A A46U | -1.5 |
| U7G G110C C124A | -4.31 |
| C8G G10U G42A G45C | -3.03 |
| C8A G44U G52A | -0.478 |
| C8A C53A | 0.281 |
| C8A G47U C73G C82U | -1.82 |
| C8U C15A A66U A118U A121C | -0.152 |
| C8G A50C C72A G93A | -0.538 |
| C8G C20U G61A C101U | -0.517 |
| C8G U54G C64U C89G | -4.42 |
| C8A G61U C98A | -3.46 |
| C8A C12A G61C G69U G120A U129G | -1.45 |
| C8A G25U | -4.13 |
| C8A G69A G120C | -1.1 |
| C8U C12A G19U U59C G120A | -1.69 |

| Variant | polymerase ribozyme fitness (log ratio) |
| --- | --- |
| C8U A43C C94U U130A | -2.21 |
| C8U C12A G61A C79U | 0.0887 |
| C8A A18C U21G A68G | -6.09 |
| C8G G57A C73U U78A A91U | -1.7 |
| U7G G48U C70A C86G | -1.54 |
| C8U C13G G110U | -1.09 |
| C8U A29U C62U A83C C88G A119G | -2.75 |
| C8G C40G U54C C99U C104U | -2.91 |
| C8A C11A C22A U32G U33C C34A C40G C72U A100U C115U | -6.9 |
| C8A U14A G110A | -1.09 |
| C8G G39C C62A | -0.386 |
| C8G C40A C53G G63U U109G | -7.06 |
| C8A C20U G113U A118U | -0.316 |
| C8G C12A U109A A119C A121G | -5.47 |
| C8A U21G A50G C88A C124A | -0.0763 |
| C8U A29G U112A | -0.107 |
| C8A A18C G60U | -1.62 |
| C8A A26U C94U C124G U125G G127U | -0.974 |
| C8A G45C | 0.366 |
| C8A C13G U14G G48A G77A G128C | -5.17 |
| C8A U9G U21G | -1.13 |
